Data from the supplement of paper PMC10567573.
± gives the standard deviation.

Experiment: protein stability index of a GFP-peptide fusion (GPS, HEK-293T) (PSI 1-6); higher = more stable
[1] = treatment: DMSO, c terminus: a fixed tail appended
[2] = treatment: MLN4924 1 uM, 8 h, c terminus: a fixed tail appended
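Also: 24-mer peptide tiles fused after GFP, lentivirally expressed, FACS-sorted into six equal bins by GFP/DsRed ratio, decoded by Illumina sequencing, PSI is the read-weighted mean bin number.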

For ENLKQQRSRREQFSRAPVSALPLA [STX5], the protein stability index [1] was 3.74 ± 0.37 and the protein stability index [2] was 3.75 ± 0.17.

In the case of KLLDELPIAKVMKDYLKHKFDDI [ASB7], the protein stability index (treatment: DMSO, c terminus: native) is reported as 2.37 ± 0.28 and the protein stability index (treatment: MLN4924 1 uM, 8 h, c terminus: native) is reported as 2.66 ± 0.38.

LPVDDDSDLNVVASFDRRGEYIYT [RBBP5] gave a protein stability index [1] of 3.41 ± 0.25 and a protein stability index [2] of 3.7 ± 0.28.

For MALRGPAGLGPGSRRPLDEAVAGA [DENND6A], the protein stability index [1] was 4.12 ± 0.42 and the protein stability index [2] was 4.53 ± 0.19.

For EIMLQYCFPRLDINVSKGINHLLK [PRIM1], the protein stability index [1] was 2.18 ± 0.67 and the protein stability index [2] was 2.5 ± 0.47.

Work on SLSLFGCTNIFYEEENPGGCEDEY [ZER1] yielded a protein stability index [1] of 3.97 ± 0.14 and a protein stability index [2] of 4.06 ± 0.23.

In the case of FMEMNQKLFDDCTQQFKAEKLKEK [PPP2R5C], the protein stability index [1] is reported as 4.26 ± 0.31 and the protein stability index [2] is reported as 4.43 ± 0.28.

In the case of KQGQCTKGDKCKFSHDLTLERKCE [ZC3H15], the protein stability index [1] is reported as 4.75 ± 0.15 and the protein stability index [2] is reported as 4.6 ± 0.1.

Sequence TKKRKLGKNPDVDTSFLPDRDREE [FAM50A] has a protein stability index [1] of 5.18 ± 0.14 and a protein stability index [2] of 5.23 ± 0.41.

Work on SGSSYCSFPPSLSSSSSSSPTSGS [LURAP1L] yielded a protein stability index [1] of 4.32 ± 0.13 and a protein stability index [2] of 4.42 ± 0.17.

With PKTQACSGSESPSDSGKDLPEPSK [MYCL] the protein stability index [1] was 5.36 ± 0.23 and the protein stability index [2] was 5.63 ± 0.25.

Sequence GQRGAQGAGRRRRAGGPPRPMSEP [SMAD6] has a protein stability index [1] of 4.96 ± 0.21 and a protein stability index [2] of 5.08 ± 0.42.

Work on NICELAARMLFSAVEWARNIPFFP [NR2F2] yielded a protein stability index [1] of 3.61 ± 0.17 and a protein stability index [2] of 3.23 ± 0.06.

Work on FRGDDGIFDDNFIEERKQGLEQFI [SNX3] yielded a protein stability index [1] of 3.28 ± 0.18 and a protein stability index [2] of 3.76 ± 0.66.

With PSGCAIACGGLDNKCSVYPLTFDK [GNB5] the protein stability index [1] was 2.72 ± 0.17 and the protein stability index [2] was 2.94 ± 0.36.

With VCQALAQVDGGANFSVDRWERKEG [CPOX] the protein stability index [1] was 4.41 ± 0.14 and the protein stability index [2] was 4.1 ± 0.43.

With STQLEMQLEKPKPVKPVTFSTGIK [MNAT1] the protein stability index [1] was 4.28 ± 0.16 and the protein stability index [2] was 4.43 ± 0.22.

For NCHIGGSFSEETEKKFEHFSGLLN [LOXL2], the protein stability index [1] was 3.02 ± 0.27 and the protein stability index [2] was 3.44 ± 0.32.

MPAHLLQDDISSSYTTTTTITAPP [SCD] showed a protein stability index [1] of 3.99 ± 0.21 and a protein stability index [2] of 3.88 ± 0.28.

LAAAHGHSEVVEELVSADVIDLFD [RIPK4] showed a protein stability index [1] of 4.08 ± 0.37 and a protein stability index [2] of 4.5 ± 0.46.

Work on YGGGLGGGFGGGFAGGFVDFGACD [KRT13] yielded a protein stability index [1] of 2.39 ± 0.46 and a protein stability index [2] of 2.14 ± 0.67.

SSVTAAVSGLLVGYELGIISGALL [SLC2A12] gave a protein stability index [1] of 2.8 ± 0.2 and a protein stability index [2] of 2.82 ± 0.18.

STPVRREVTDKEQEFAARAAKQLE [EPB41L3] showed a protein stability index [1] of 5.28 ± 0.2 and a protein stability index [2] of 5.27 ± 0.21.

GGLFVGKEGPMIHSGSVVGAGLPQ [CLCN6] gave a protein stability index [1] of 3.39 ± 0.16 and a protein stability index [2] of 3.46 ± 0.44.

YAFVGDYSGQITLLKLEQNTCSVI [WDFY1] gave a protein stability index [1] of 2.94 ± 0.65 and a protein stability index [2] of 2.72 ± 0.58.

With SFRGAFSNSEKAKNIFRIRFHDPS [NET1] the protein stability index [1] was 2.59 ± 0.34 and the protein stability index [2] was 2.65 ± 0.12.

For LVPILIEAARNGKMKFVIGNGKNL [NSDHL], the protein stability index [1] was 2.52 ± 0.3 and the protein stability index [2] was 2.36 ± 0.28.

Sequence VYSDLCEAAEAVRPEERKTCRNPA [ADAMTSL2] has a protein stability index [1] of 4.83 ± 0.21 and a protein stability index [2] of 4.5 ± 0.49.

In the case of HIPSQEVPGTQVGQGGKLWDPSVQ [ZNF263], the protein stability index [1] is reported as 4.35 ± 0.12 and the protein stability index [2] is reported as 4.44 ± 0.24.

In the case of QQYQSQAKQLFRKLNEQSPTRCTL [SEC22B], the protein stability index [1] is reported as 3.46 ± 0.073 and the protein stability index [2] is reported as 3.44 ± 0.27.

For IARVHGTFGAAACSIGFAVRYLNA [POP5], the protein stability index [1] was 2.22 ± 0.26 and the protein stability index [2] was 2.25 ± 0.56.

DPALRRRRRGPRNKKRGWRRLAQE [NOP53] gave a protein stability index [1] of 4.73 ± 0.3 and a protein stability index [2] of 4.92 ± 0.24.

MRVGPVRSAMSGASQPRGPALLFP [TRIB1] gave a protein stability index [1] of 3.48 ± 0.65 and a protein stability index [2] of 3.08 ± 0.24.

In the case of KVLHEDKQTREQLHSISDSVLFLQ [TRIM29], the protein stability index [1] is reported as 3.46 ± 0.16 and the protein stability index [2] is reported as 3.58 ± 0.27.

Work on QDSKEMKQLLDSKIGFEIGIENEE [ZNF449] yielded a protein stability index [1] of 5.35 ± 0.37 and a protein stability index [2] of 5.37 ± 0.47.

With SESGSLGNSSGSDVTSLSSQLPDT [ISL2] the protein stability index [1] was 5.43 ± 0.056 and the protein stability index [2] was 5.41 ± 0.14.

KVEFTEEEIKTWGTVFQELNKLYP [TPH1] showed a protein stability index [1] of 2.77 ± 0.24 and a protein stability index [2] of 2.91 ± 0.34.

SKPSSDLLDLQPDFSSGGAAAAAA [SNAP91] gave a protein stability index [1] of 4.99 ± 0.37 and a protein stability index [2] of 5.027 ± 0.049.

Work on SRGGPPPPPPPPHNSGPPPPPARG [WASL] yielded a protein stability index [1] of 5.13 ± 0.26 and a protein stability index [2] of 5.07 ± 0.07.

With SLSEALDLIESDPDAWCDLSKFDL [MYBL2] the protein stability index [1] was 3.61 ± 0.23 and the protein stability index [2] was 4.13 ± 0.56.

PRCDLVDLGEGKICFCCEEFQPAK [FAM189A2] showed a protein stability index [1] of 3.3 ± 0.44 and a protein stability index [2] of 3.67 ± 0.49.

In the case of MADSASESDTDGAGGNSSSSAAMQ [CCDC6], the protein stability index [1] is reported as 5.51 ± 0.08 and the protein stability index [2] is reported as 5.38 ± 0.32.

NASHKLEVRLVPVSFEDPEFKSSF [ATE1] gave a protein stability index [1] of 2.65 ± 0.25 and a protein stability index [2] of 3.18 ± 0.19.

In the case of ILRKLPQQREKLSLIRKHAQTFIA [CCND2], the protein stability index [1] is reported as 2.3 ± 0.14 and the protein stability index [2] is reported as 2.42 ± 0.41.

Sequence TELRRSGSSRSPGSKARAEGRGPV [PLEKHN1] has a protein stability index [1] of 4.84 ± 0.31 and a protein stability index [2] of 4.96 ± 0.52.

In the case of TEEDDGFVDILESDLKDDDAVPPG [CDC25B], the protein stability index [1] is reported as 5.46 ± 0.27 and the protein stability index [2] is reported as 5.4 ± 0.12.

PHQTSKMENLPGLASGPGKYMPHL gave a protein stability index [1] of 3.44 ± 0.23 and a protein stability index [2] of 3.65 ± 0.076.

For IEKYLRRQLTKPRPVILDPADPTG [OAS1], the protein stability index [1] was 3.09 ± 0.2 and the protein stability index [2] was 3.25 ± 0.24.

Sequence QYALELLTVYAWERGSMKTHFNTA [OAS1] has a protein stability index [1] of 3 ± 0.24 and a protein stability index [2] of 2.86 ± 0.43.

For PRTRARLGANEVLLVVGGFGSQQS [KLHL12], the protein stability index [1] was 2.17 ± 0.12 and the protein stability index [2] was 1.97 ± 0.58.

PGGNLIVELARYLVDVRQEQLQGF [DNAAF3] gave a protein stability index [1] of 2.9 ± 0.56 and a protein stability index [2] of 2.39 ± 0.14.

In the case of PSRRSENRVVVSGLPPSGSWQDLK [SRSF1], the protein stability index [1] is reported as 3.89 ± 0.33 and the protein stability index [2] is reported as 4.21 ± 0.22.

MDDSTEREQSRLTSCLKKREEMKL [TNFSF13B] gave a protein stability index [1] of 5.04 ± 0.19 and a protein stability index [2] of 5.16 ± 0.11.

AEMFRRKPLFCGNSEADQLGKIFD [CDK4] showed a protein stability index [1] of 2.98 ± 0.17 and a protein stability index [2] of 3.06 ± 0.2.

In the case of TTTTFPMSNHTRERVTVAKLTLEN [STK38L], the protein stability index [1] is reported as 3.52 ± 0.26 and the protein stability index [2] is reported as 3.5 ± 0.18.

For KRFDESMQVFAKLGTDPTHVMGLY [VPS39], the protein stability index [1] was 2.38 ± 0.25 and the protein stability index [2] was 2.69 ± 0.095.

LTILAKRKSLFDDKAVEIEELTYI [STX5] gave a protein stability index [1] of 2.2 ± 0.35 and a protein stability index [2] of 2.22 ± 0.49.

In the case of ACTLTVFPPEETTPSPSRESPLSA [KLHL13], the protein stability index [1] is reported as 4.35 ± 0.32 and the protein stability index [2] is reported as 4.45 ± 0.15.

For AGEPGHSPADYLRFQDLVLRMLEY [DYRK1B], the protein stability index [1] was 2.27 ± 0.38 and the protein stability index [2] was 2.33 ± 0.22.

Sequence PSLYSSYHQGCLVNPTGNLPMWSN [NANOGP8] has a protein stability index [1] of 2.39 ± 0.073 and a protein stability index [2] of 2.37 ± 0.096.

LHTFTPAGRPRAERRPRRVEAERP [FAM189A2] showed a protein stability index [1] of 4.45 ± 0.21 and a protein stability index [2] of 4.45 ± 0.31.

For WDQVSRLHEVLTEVVPIHGRGNFP [TENT5C], the protein stability index [1] was 2.59 ± 0.28 and the protein stability index [2] was 2.67 ± 0.17.

With KQGYILNSDQTTCRIQDLCAMEDH [MATN2] the protein stability index [1] was 3.35 ± 0.27 and the protein stability index [2] was 3.17 ± 0.39.

With PAPEAAHTTGPTGSAPNSPMALLT [TFE3] the protein stability index [1] was 4.67 ± 0.12 and the protein stability index [2] was 4.67 ± 0.16.

Sequence GKLKCDICGIICIGPNVLMVHKRS [IKZF1] has a protein stability index [1] of 2.91 ± 1.6 and a protein stability index [2] of 2.26 ± 0.75.
